Experimental data from publication PMC4634974, “Carbon Catabolite Repression and the Related Genes of ccpA, ptsH and hprK in Thermoanaerobacterium aotearoense” (PLoS ONE, 2015).

T1: HPrK/P (HPr kinase/phosphatase) (Thermoanaerobacterium aotearoense, UniProt A0A0S1LJ76)
T1 construct: protein substrate recombinant HPr (KR818834) of the same strain
T1 sequence (A0A0S1LJ76 1-304): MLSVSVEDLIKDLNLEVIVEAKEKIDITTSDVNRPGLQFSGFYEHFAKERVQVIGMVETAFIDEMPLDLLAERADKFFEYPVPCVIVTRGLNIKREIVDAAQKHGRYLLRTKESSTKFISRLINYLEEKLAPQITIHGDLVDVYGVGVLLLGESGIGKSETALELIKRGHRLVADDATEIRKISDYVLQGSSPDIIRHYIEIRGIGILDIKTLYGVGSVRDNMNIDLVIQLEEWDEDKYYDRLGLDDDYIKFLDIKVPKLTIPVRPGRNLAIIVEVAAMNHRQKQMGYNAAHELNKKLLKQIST


Key:
[1] = target: catabolite control protein A (CcpA) from T. aotearoense SCUT27 with a C-terminal His-tag (Thermoanaerobacterium aotearoense SCUT27) (UniProt T1SCF9); experiment: SPR; SPRi (Plexera V3), 25°C; CcpA printed as spots on gold-coated sensor slides by amine coupling; HPr, HPrSerP or HPrM flowed as analytes at 2 μL/s, association and dissociation 300 s each; PBST pH 7.2 running buffer; BSA as reference; Langmuir binding model
Chain of catabolite control protein A (CcpA) from T. aotearoense SCUT27 with a C-terminal His-tag (Thermoanaerobacterium aotearoense SCUT27) (T1SCF9 entry or part of it): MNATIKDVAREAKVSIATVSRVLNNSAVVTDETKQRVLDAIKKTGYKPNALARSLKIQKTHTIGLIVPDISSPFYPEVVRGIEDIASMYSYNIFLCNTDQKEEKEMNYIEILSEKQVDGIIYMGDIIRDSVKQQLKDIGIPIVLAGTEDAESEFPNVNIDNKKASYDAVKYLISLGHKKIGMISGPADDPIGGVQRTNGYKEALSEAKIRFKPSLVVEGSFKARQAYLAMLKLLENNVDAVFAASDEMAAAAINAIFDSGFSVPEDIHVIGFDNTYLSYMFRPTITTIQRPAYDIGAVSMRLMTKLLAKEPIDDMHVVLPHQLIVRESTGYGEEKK

[2] = target: T1, HPrK/P (HPr kinase/phosphatase); experiment: HPr phosphorylation, Phos-tag SDS-PAGE; format: biochemical; conditions: 5 mM ATP, 50 uM HPr, 5 mM MgCl2, 10 mM NaCl, 100 mM Tris-Cl pH 7.0, 37 C, 10 min
[3] = target: T2, catabolite control protein A (CcpA) from T. aotearoense SCUT27 with a C-terminal His-tag (Thermoanaerobacterium aotearoense SCUT27, UniProt T1SCF9 1-336); experiment: SPR; SPRi (Plexera V3), 25°C; CcpA printed as spots on gold-coated sensor slides by amine coupling; HPr, HPrSerP or HPrM flowed as analytes at 2 μL/s, association and dissociation 300 s each; PBST pH 7.2 running buffer; BSA as reference; Langmuir binding model; conditions: both partners purified
T2 construct: CcpA, catabolite control protein A, Thermoanaerobacterium aotearoense SCUT27; ORF of 336 amino acids (ccpA gene, 1011 bp, GenBank KC899078); full-length gene cloned into pET30a (NdeI/XhoI); The genomic primer begins with GTG, the expression primer Tc-F with ATG; Cloning through XhoI of pET30a probably adds LE before the His-tag (surmised); also called pET-CcpA product; source: E. coli BL21(DE3), …
T2 sequence (T1SCF9 entry or part of it): as above

| Molecule | Kd [1] [µM] | koff [1] [s⁻¹] | kon [1] [M⁻¹ s⁻¹] | HPr phosphorylation, Phos-tag SDS-PAGE [2] | Kd [3] [µM] | koff [3] [s⁻¹] | kon [3] [M⁻¹ s⁻¹] |
| --- | --- | --- | --- | --- | --- | --- | --- |
| Histidine-containing Protein (HPr) from T. aotearoense SCUT27 with a C-terminal His-tag, not phosphorylated (natural protein) | 2.29 | 0.000922 | 403 |  |  |  |  |
| Nc1ncnc2c1ncn2[C@@H]1O[C@H](COP(=O)(O)OP(=O)(O)OP(=O)(O)O)[C@@H](O)[C@H]1O [ATP] |  |  |  | HPrK/P lost its kinase activity when there was no ATP in the reaction mixture |  |  |  |
| HPrM, HPr from T. aotearoense SCUT27 with Ser46 mutated to Ala, C-terminal His-tag (natural protein) MTEKTVEIKNKTGLHARPAALFVQAASKFSSQIWVEKENKKVNAKAIMGIMSLGVAQGNTVKLIADGSDEQEAIKTLVDLIDSKFGEE |  |  |  |  | 6.01 | 0.000576 | 95.8 |
| seryl-phosphorylated HPr (HPrSerP) from T. aotearoense SCUT27 with a C-terminal His-tag (natural protein, Thermoanaerobacterium aotearoense SCUT27, UniProt A0A0S1LJA4 1-88, looked up, phosphoserine at 46, HPr, histidine-containing protein, Thermoanaerobacterium aotearoense SCUT27; ORF of 88 amino acids (ptsH gene, GenBank KR818834); full-length gene cloned into pET30a (NdeI/HindIII); phosphorylated at Ser46; Same chain as m3, phosphorylated at Ser46 by recombinant HPrK/P; also called HPrK/P treated HPr; source: E. coli BL21(DE3), purified (HiTrap Chelating HP, desalting column), phosphorylated in …) MTEKTVEIKNKTGLHARPAALFVQAASKFSSQIWVEKENKKVNAKSIMGIMSLGVAQGNTVKLIADGSDEQEAIKTLVDLIDSKFGEE |  |  |  |  | 0.00222 | 7.78e-07 | 350 |
